Laboratory results: the domain aggregation screens of Martell et al. (2025)

Assay: soluble fraction after stress (log2 fold change); higher = more stays soluble; pooled small domains, quantitative proteomics
Details: stress: pH 4
Summary of the method: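 Pooled custom libraries of small protein domains were subjected to pH 4 and measured by high-throughput quantitative proteomics. The log2 fold change in soluble amount per domain is reported, higher values meaning more remained soluble. This is used as a measure of aggregation propensity.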

Row | Sequence | soluble fraction (log2)
1 | HMNPNPYIVLGVDKSMPFGEIKKVYQRKRREFHPDSLVAKGLPDELLQKAQDKFIAIQEAYKSIEKNQV | 0.0331
2 | HMNPNSIDEKLKLLSNREKEVAILVLKKLSYFEISEQLNITIRTVKAHTKNIYEKFNVSNRLAFLLLFN | -0.209
3 | HMNPSAFSEYSFELLQSALLKKKIDENLSNQTIARDAGVSEAFVQKVLTNNVKRPSVKNRVRMISYLGLD | 0.00228
4 | HMNPSFTMGTRIKEYIDAHYLEDLKLADIAEALHINLYYLSHTFKDLTGSSPMQYIIRRRIEE | -0.603
5 | HMNPSPYLRRHLSGDWGDLDEDDRRSNDAALASGEARLLSSYQVDPDLKLWIITEWDRSVTTLLLPSE | ≥ 0.43
6 | HMNPTLPYGFAKRHGVILLEAGEVAVVGLREGADPAALIETRRALGRPLRVEPLDQATFDRRLSQVYA | -0.15
7 | HMNPTSLTFRSNVKDGKVYVDGIFKGSSDLDFDLPKGRHSIRIEKDGYVPFAKTINLIKALVIDFNMEKA | 0.123
8 | HMNPTTQIQYNLPKSEFVSIYIYDLIGNRVKSLINNYQDAGYKSVYWDAMNDLGQPVSAGMYIY | -0.0442
9 | HMNQKKFIQADYEDRLFDHLAFEVKDMEKIISMMRREKFTITDEPFRLSPTGSLIAFVEDPDRTLIELIER | -0.522
10 | HMNQNAMIGAHIRNLRLAKKLTLKQLSDESGLSVGFLSQLERGMSSIAIDTLARLAHILGADLSSFF | -0.214
11 | HMNQRQLQIKQMLDVAQEVFLKQLKTVFPDVSEMTIRRDLILLEDMGYAVRTHGGAVSINRF | -1.2
12 | HMNQRTATVTASQLNVRSGPSTAYSIVHVLRQGETVEVIGESDGWYQIRLKDGRVGWSSGQYLNLN | -0.481
13 | HMNQSAVMAERMKQTKNRILQTAKEIFLEQGYKRTTIRQIVERSGITSGSIYNIFSSKEEIFSALVDDL | -1.77
14 | HMNQSYQLWIKDDELGPTPRSVGVLNEHFEVDPAALTNYDAELLRRATFGISLEPRGGSPTGQP | -0.688
15 | HMNQTPQISYSQFIADVRSGQIKDVNIDSDNRTIVGHKFSGEEFTTFSPGDNKLVDELLNYNVEIKTSP | -0.125
16 | HMNREEFLSQLERLLYDIPAQEREEALEYYNGYFDDAGKEKEAEVIQELGSPGKVAAIIKADLSG | -0.605
17 | HMNRETAISIYRILHILEEPYKEVFTLRTLGDLSYREIADIFGKQENWARVTYHRAKLKIREALVS | -0.71
18 | HMNRIFQERVVPAELDTLRADKVAASLFSDFSRNELAHWIKMGDLSINGGVKKAKDKLFEGDVLILDVEIV | -0.679
19 | HMNRKILVLLAGKEQITDNVSVMQSIHRYAFINTATINKAQHEILIEKEEIRQEALTLIHEFLK | 0.0276
20 | HMNRKLKAKATREKIYKSAEKLFSQNDYNKVSVDAIVEAAGVAKGSFYVHFASKDALIAMLINDH | -0.012
21 | HMNRMKLLREQHNLSQTDLAKILNISRQSYNFYENEKRDPDTTMLIRIADFFNVSLDYLLGRTNN | -0.0385
22 | HMNRPYVELFSGLGQEEAQQIVQKLQEDEVDYKFSGDSTILVKEDVVDQTKATLVQEGYPKS | -0.392
23 | HMNSEEINDVRKAVDELPTHLREILLLNYFQQMSYVQISDSLEIPLGTVKSRLHAAVAAFRNAWQSSQEE | -0.154

Row | Sequence | soluble fraction (log2)
24 | HMNSEELFLRRIAQELIDQHGKDLHRIIVVLPSNRSKVFLKKFLFEILGSAFLTPQLMLLPQFVKSIV | -0.34
25 | HMNSFGWESFVGEKGVTDTDLRPSGWIVIKDKRLFALTEGTFIEKGVSVEILSVEGNRIVVREIS | -0.711
26 | HMNSHKIIDRLNQMITEKDLSEEMPAITEAFKNNERSAEDLKKYVAENLSKKLNAEEREKFVSLILQYRN | -0.338
27 | HMNSILFAITKEGGVVYGGKPVGVNGVRPLVRRLLQSEEMPVILQVDEKADAGLVIRVIDESKLGGASKV | -0.196
28 | HMNSIQEQIEKYVYSLAPVTIERYESLKNGDIEDIEFEKLRKSISSKIINEKIDNKKQVAILSHLKKMYSD | -0.472
29 | HMNSKIIVESIIKSKNGIAKVADLVEGGVSRQSIKKMYADGYIKRISRGYYTLTSEPVSSDEQVISS | 0.39
30 | HMNSKMTYSELITSMENKEVESVKISSSGDVASVKLKNSKTEKEVKIPSLDSFMTYTEQYLKTGEITLEE | -0.0537
31 | HMNSKMTYSELVTNITNKEVESIKISSTGSTASVKLKNSKSEKEVNIPSLDSFMSYTEEYLKTGDFTLDEE | -0.824
32 | HMNSLKNKNNLIALVGASNDKNKYGNKILLDLVSKGHNVVPINPKEDTVAGLKSYNNVSELSEKPSI | -0.202
33 | HMNSLPFSNFMNEVEAGRVVEVKIQGNNISGVLANGKTFSTYSPNYPELVEKLSSNGVSIVATPQ | -0.0501
34 | HMNSRTLAYSDFIRKVDKGEVSAVVIDGEQVQVQTKDGQTFVTIQPQSEQMNDKLVEQLIAKDISVKAERQ | 0.0565
35 | HMNSSLFLARQVHALRKKAGLTLQQLSRKSDVSVSTLSKIEKGQLSPTYEKIVSLARGLDVPIAALFHE | ≥ 0.43
36 | HMNSSTVDLAKEFLIDLLSSVEKMPASEVQEEAKNAGYSVASIRRAKDNLNIKPFKDGSAWYWKLPSIFK | -0.447
37 | HMNSSTYIVTFKVDGEEDIVETYQWGDRIIVPEVEAKDDYVFIGWDAQIPEFMPERNLEFTAI | -1.67
38 | HMNSTNYQVIITANGGLNIRAGASTAYARIGGYAKGTVVTILAESNGFGKTDKGWISLNYTSKDLD | 0.148
39 | HMNTAALSLQRRNEIKKWLLEEKTLTVAALSNRFNVTYETIRRDLEILEKEGFLKKVYGGAALNERV | 0.244
40 | HMNTAIDGLIEKVGMFAMEKKAISVDQVKENFSINGEQAESVIKQLETIGVLGKKNEDGTHTVM | -0.0986
41 | HMNTDALIGKTGYVTEIVGERHGRIQFSGGEWSARTEGVSIPVGAEVRVDRIDGATAVVSAV | 0.22
42 | HMNTDVEKQKVFTALFDDYFRRNSMTSLEKQLFLTALKTNFQNAQKTVAKDHPYYATYSLIISAIENYR | -0.936
43 | HMNTEEKILEKEFLMLYSELGLQPKNIYELMENTGLKYEKLVEMLLQLQLKGLVEQPSYNYYSRL | -2.46
44 | HMNTEEVGSYLKKLRLEHSFTQKELAGKLYITHQAVSNWEKGKALPDIGILSQLGDIYGISIDNLLLK | -0.551
45 | HMNTEKRVFAGVENTRLDHFLVEQFPEFSRTFIQQMIKSANVIVNGNIEKASYKLREGDTIMTRPM | -0.0899
46 | HMNTELFTKNLFNKLEVLLGEKNWKSKTAQLLNISSDAFYKKIRNESQLNLHELLLIKDTFKISIDALLDE | -0.929

Row | Sequence | soluble fraction (log2)
47 | HMNTETAVTKAIDQIQVMMDLRNRSVSFTRDQETGTDIIKVIDDNTGDTIRQMPSEELLTFMKNLTQ | -0.332
48 | HMNTFKNIFIQEGDLFNLKKNDNQIIFAKEGILINENKKIFRLLNGKIISTNNNRLIGFEFDKIDYNLSN | -0.0628
49 | HMNTGIPHQEVIKKLYSFAEGGDWKGLKEELNRIKEYTLFYNSVKELADSFEINRLIEKLKTYIF | -0.0132
50 | HMNTGLSEREHEIAQLVLQGRTYAEIGAELFISPRTAEHHIGQIRRRLAATSRSDLLAKLRVAMNTTEGAG | -0.567
51 | HMNTISYTELIKQIDEGNVEKVEMTVGSTSVKVKLQGQEEEKKAIVPNTQAFVELIQEKTLEGNQIDLKQN | 0.0768
52 | HMNTLSPVRILAILDGRSSMAEWQLAEELGVSIDNLSEILNKMSTDGQIRLVPSEDGRMVVP | -0.0347
53 | HMNTPALRQRTQDVPALLIHFAKYFATKGQTPISFAPDFLEALKDYPWPGNVRELRNLVESMVV | -0.0956
54 | HMNTPHLTPREREVLKGIVDGLINKEIAARMGVSVATVITHRNNLTEKLGTRSVSALTIFAVMHGIVR | -0.323
55 | HMNTPNYDVLYRGLADADAGQIMEALQKSNIPFKVDSHSGVLLVPADQVHEARLKLASQGLPRG | 0.00323
56 | HMNTPTLLLYGGKDHSVPEAGIRHLRAHLSANDRGEYRFYPNAPHLLLQSRQWQQVSQDISQWLAMT | 0.0454
57 | HMNTRWDDAAQTWLRKVIEQQPVLVQISAAKRLRDQAEQRAREAGEEVVTEQHVKRAGLELGFGEP | -0.239
58 | HMNTSITVPSLKGLSQEAATLKMERLGLHVEVSDTGFVRSLAFGTVLQQSIAPGEKVKPGRLVYITINSD | 0.0638
59 | HMNTVAGAISDLSFKVRGSEDIEKLNRLKALSIQAKLDVQGQEEAERLISELEAKYGSLGMTVDKVSGKIA | 0.192
60 | HMNTYEIIGGDNRARGPVTGEELSQWIREGRASGHTMARVSDGEHWQPLGSFPEFVGPLQGLPW | -0.163
61 | HMNTYVLPDALKSQLSVEDTGMLTKQLQALPETLAEGVLDSLSQMLSKNTLQNPVGWMLAVMKRAREGNFN | -0.282
62 | HMNVAVSEADAKAAALERVSGATEADIRMELELDDGYYVYEGDIIYQQKEYEFEIDAQTGKFLKWSEER | 0.0965
63 | HMNVDLLEARIPIQSHGMRLDQVVAELFPDYSRNRLAAWIKEGRLTVDGKTMKPRDRALASAHVVLEVV | -0.197
64 | HMNVGKYILTLAAKEGYSQSDVARRTGISRQMLSYIIAGERKLTLPQALKIESLLSLKTGTLILMQDED | 0.219
65 | HMNVNEIREMYPEGTQIVLTEMRGENQMPYGLKGTVKFVDDAGQIHMKWENGSSLALNINEDTFEKVE | -0.471
66 | HMNVPATAEAYEALLADAESVGKSLWGHEAKRFAAEQALLSAGLREVIQVDPDKARELALRLRGLLDEYRG | -1.24
67 | HMNVQGFVFDLAEPLDKVPSIEGFPLKLEDPLTLVAAVNKDRSINALFAELSKLNIKIKSMRNE | -0.458
68 | HMNVVSIEHIRTHLQNHLSLIGRSIEESFNEAKVIAFVASLFLTHRGYASVSQDMGTNGEIYLQDLW | -0.0149
69 | HMNVWGLSERELEATRLLIEGFSSKEASARMGISPSTVRSLWGRARAKMGVDSIEDARELVA | -0.273
